Measured values: US20220135652A1 (FERRING B V, published 2022)

Molecular target: T1, IL-6/sIL-6R complex (human, UniProt P05231 30-212; P08887 20-355, limits assumed)
T1 construct: Complex of IL-6 and soluble IL-6R; also called IL-6/sIL-6R trans-signalling complex
Experiment: method not stated; value given in Example 4 and used to calculate occupancy

Kd: 130 pM
B1: Peptide 1 (the polypeptide of SEQ ID NO: 1 in its active dimerized form) (Fc fusion)
chain: ELLDPCGYISPESPVVQLHSNFTAVCVLKEKCMDYFHVNANYIVWKTNHFTIPKEQYTIINRTASSVTFTDIASLNIQLTCNILTFGQLEQNVYGITIISGLPPEKPKNLSCIVNEGKKMRCEWDGGRETHLETNFTLKSEWATHKFADCKAKRDTPTSCTVDYSTVYFVNIEVWVEAENALGKVTSDHINFDPVYKVKPNPPHNLSVINSEELSSILKLTWTNPSIKSVIILKYNIQYRTKDASTWSQIPPEDTASTRSSFTVQDLKPFTEYVFRIRCMKEDGKGYWSDWSEEASGITYEDRPSKAPSFWYKIDPSHTQGYRTVQLVWKTLPPFEANGKILDYEVTLTRWKSHLQNYTVNATKLTVNLTNDRYLATLTVRNLVGKSDAAVLTIPACDFQATHPVMDLKAFPKDNMLWVEWTTPRESVKKYILEWCVLSDKAPCITDWQQEDGTVHRTYLRGNLAESKCYLITVTPVYADGPGSPESIKAYLKQAPPSKGPTVRTKKVGKNEAVLEWDQLPVDVQNGFIRNYTIFYRTIIGNETAVNVDSSHTEYTLSSLTSDTLYMVRMAAYTDEGGKDGPEFTFTTPKFAQGEDKTHTCPPCPAPEAEGAPSVFLFPPKPKDTLMISRTPEVTCVVVDVSHEDPEVKFNWYVDGVEVHNAKTKPREEQYNSTYRVVSVLTVLHQDWLNGKEYKCKVSNKALPAPIEKTISKAKGQPREPQVYTLPPSREEMTKNQVSLTCLVKGFYPSDIAVEWESNGQPENNYKTTPPVLDSDGSFFLYSKLTVDKSRWQQGNVFSCSVMHEALHNHYTQKSLSLSPGK
notes: Produced in CHO/dhfr- cells; 10 N-glycosylation sites per chain; also called gp130-Fc fusion dimer
